Reference: patent US20110015136A1

Target: human membrane attack complex (MAC), C5b-9 complex (human) (UniProt P01031)
Assay: cell-based or functional assay

- complement mediated cell lysis (PI uptake, FACS; hepa-1c1c7 cells, 1000 vp/cell AdCAGCD59, 1% NHS): 12.3%
- fold reduction of complement mediated cell lysis: 8 fold
- inhibition of cell lysis at 250 vp/cell of AdCAGCD59: > 50%
- inhibition of cell lysis at 500 vp/cell of AdCAGCD59: > 70%
- reduction in MAC immunofluorescence intensity on corneal endothelium: 86%
- reduction in MAC immunofluorescence on eyecups at 7.5 min NHS treatment: 68%
- reduction in MAC immunofluorescence on eyecups at 15 min NHS treatment: 56%
- reduction in mean MAC immunofluorescence intensity on RPE of eyecup tissues: 55%
B1: human CD59, glycosylphosphatidylinositol (GPI)-anchored membrane protein (protein, UniProt P13987 26-102, looked up)
chain: LQCYNCPNPTADCKTAVNCSSDFDACLITKAGLQVYNKCWKFEHCNFNDVTTRLRENELTYYCCKKDLCNFNEQLEN
modifications: GPI anchor at Asparagine 77 (mature numbering)
